Paper PMC8225817, “The mineralocorticoid receptor leads to increased expression of EGFR and T-type calcium channels that support HL-1 cell hypertrophy”
Where a chain is given by its changes, count along the chain named.

B1: mMRE (-216G/-191C) (dsDNA)
DNA 1: GCAGCAGCCTCCGCCCCCCGCACGGTGTGAGCGCCCGCCGCGGCCGAGGCGGCCGGAGTCCCGAG
DNA 2: CTCGGGACTCCGGCCGCCTCGGCCGCGGCGGGCGCTCACACCGTGCGGGGGGCGGAGGCTGCTGC
B2: mMRE (-216G/-191A) (dsDNA)
DNA 1: B1 DNA 1 with C38A
DNA 2: B1 DNA 2 with G28T

How the values were obtained:
[1] = molecular target: T1, rhSP1 (specificity protein 1) (human, UniProt P08047 1-785); experiment: EMSA; 10 mM Tris, 50 mM KCl, 5 mM MgCl2, 1 mM DTT, 5% glycerol, 1 mg/ml poly(dI-dC), 5 fmol probe, 30 min room temperature; pH not stated; conditions: protein: commercial; label: biotin
T1 sequence (P08047 whole entry): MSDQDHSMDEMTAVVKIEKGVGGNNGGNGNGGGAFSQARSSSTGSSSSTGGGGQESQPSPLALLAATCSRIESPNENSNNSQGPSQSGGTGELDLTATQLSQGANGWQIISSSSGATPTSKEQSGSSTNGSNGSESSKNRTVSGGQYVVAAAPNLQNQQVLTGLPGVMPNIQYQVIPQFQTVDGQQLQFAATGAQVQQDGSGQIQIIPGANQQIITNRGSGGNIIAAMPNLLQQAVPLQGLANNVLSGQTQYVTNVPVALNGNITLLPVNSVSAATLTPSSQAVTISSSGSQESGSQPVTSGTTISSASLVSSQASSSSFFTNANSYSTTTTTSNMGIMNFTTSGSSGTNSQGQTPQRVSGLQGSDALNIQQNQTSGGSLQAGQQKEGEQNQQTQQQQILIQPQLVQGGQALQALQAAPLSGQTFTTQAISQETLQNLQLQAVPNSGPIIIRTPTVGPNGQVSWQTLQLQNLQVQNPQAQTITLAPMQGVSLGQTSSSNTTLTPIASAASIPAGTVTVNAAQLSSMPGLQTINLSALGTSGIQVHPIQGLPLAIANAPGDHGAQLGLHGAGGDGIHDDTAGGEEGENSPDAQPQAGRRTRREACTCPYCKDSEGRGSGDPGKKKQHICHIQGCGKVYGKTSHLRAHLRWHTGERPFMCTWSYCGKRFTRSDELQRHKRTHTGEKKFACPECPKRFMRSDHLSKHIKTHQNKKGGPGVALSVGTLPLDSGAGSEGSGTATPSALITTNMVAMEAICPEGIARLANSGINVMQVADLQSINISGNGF

[2] = molecular target: T1, rhSP1 (specificity protein 1); experiment: EMSA; same as -216G/-191C; 10 mM Tris, 50 mM KCl, 5 mM MgCl2, 1 mM DTT, 5% glycerol, 1 mg/ml poly(dI-dC), 5 fmol probe, 30 min room temperature; pH not stated; conditions: protein: commercial; label: biotin

| Binder | binding result [1] | binding result [2] |
| --- | --- | --- |
| B1 | binds |  |
| B2 |  | binds |
